From the supplement of paper PMC5998384

Legend:
HeLa Kyoto [1] = assay: thermal stability score vs G1/S (z-score of summed log2 fold changes over temperatures); higher = more thermally stable than in G1/S
HeLa Kyoto [2] = assay: solubility in G1/S (NP-40 vs SDS abundance) (log2 ratio); higher = more soluble; conditions: cell cycle stage: G1/S
HeLa Kyoto [3] = assay: melting temperature (median over replicates), in situ; higher = more thermally stable
HeLa Kyoto [4] = assay: solubility change mitosis vs G1/S (difference of NP-40 vs SDS log2 ratios) (log2 ratio difference); higher = more soluble in mitosis
[5] = cell cycle stage: early G1 (4.5 h after nocodazole release)
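For melting temperature (median over replicates), in situ in this document: HeLa Kyoto cells synchronized by double thymidine or nocodazole block, proteins quantified by TMT10plex mass spectrometry, three independent biological replicates.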
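For solubility change mitosis vs G1/S (difference of NP-40 vs SDS log2 ratios) in this document: synchronized HeLa Kyoto cells (double thymidine block for G1/S, nocodazole release for mitosis), protein amounts in NP-40 versus SDS lysates quantified by mass spectrometry, three biological replicates.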
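For solubility in G1/S (NP-40 vs SDS abundance) in this document: HeLa Kyoto cells arrested at G1/S by double thymidine block, proteins quantified by TMT10plex mass spectrometry in mild NP-40 versus SDS extracts, three biological replicates.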
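For thermal stability score vs G1/S (z-score of summed log2 fold changes over temperatures) in this document: synchronized HeLa Kyoto cells, proteins quantified by TMT10plex mass spectrometry, three biological replicates, mitosis taken 0.5 h after nocodazole release, G1/S directly after double thymidine block.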

Sequence: MLRFLAPRLLSLQGRTARYSSAAALPSPILNPDIPYNQLFINNEWQDAVSKKTFPTVNPTTGEVIGHVAEGDRADVDRAVKAAREAFRLGSPWRRMDASERGRLLNRLADLVERDRVYLASLETLDNGKPFQESYALDLDEVIKVYRYFAGWADKWHGKTIPMDGQHFCFTRHEPVGVCGQIIPWNFPLVMQGWKLAPALATGNTVVMKVAEQTPLSALYLASLIKEAGFPPGVVNIITGYGPTAGAAIAQHVDVDKVAFTGSTEVGHLIQKAAGDSNLKRVTLELGGKSPSIVLADADMEHAVEQCHEALFFNMGQCCCAGSRTFVEESIYNEFLERTVEKAKQRKVGNPFELDTQQGPQVDKEQFERVLGYIQLGQKEGAKLLCGGERFGERGFFIKPTVFGGVQDDMRIAKEEIFGPVQPLFKFKKIEEVVERANNTRYGLAAAVFTRDLDKAMYFTQALQAGTVWVNTYNIVTCHTPFGGFKESGNGRELGEDGLKAYTEVKTVTIKVPQKNS [ALDH1B1]
- thermal stability score (HeLa Kyoto [1]; [5]): -1.97
- thermal stability score (HeLa Kyoto [1]; cell cycle stage: mitosis): -1.54
- solubility in G1/S (log2) (HeLa Kyoto [2]): 0.229
- melting temperature (HeLa Kyoto [3]; cell cycle stage: G1/S): 52.6 °C
- melting temperature (HeLa Kyoto [3]; cell cycle stage: mitosis): 52.8 °C
- solubility change mitosis (log2) (HeLa Kyoto [4]): -0.0523

Sequence: MLRLPTVFRQMRPVSRVLAPHLTRAYAKDVKFGADARALMLQGVDLLADAVAVTMGPKGRTVIIEQSWGSPKVTKDGVTVAKSIDLKDKYKNIGAKLVQDVANNTNEEAGDGTTTATVLARSIAKEGFEKISKGANPVEIRRGVMLAVDAVIAELKKQSKPVTTPEEIAQVATISANGDKEIGNIISDAMKKVGRKGVITVKDGKTLNDELEIIEGMKFDRGYISPYFINTSKGQKCEFQDAYVLLSEKKISSIQSIVPALEIANAHRKPLVIIAEDVDGEALSTLVLNRLKVGLQVVAVKAPGFGDNRKNQLKDMAIATGGAVFGEEGLTLNLEDVQPHDLGKVGEVIVTKDDAMLLKGKGDKAQIEKRIQEIIEQLDVTTSEYEKEKLNERLAKLSDGVAVLKVGGTSDVEVNEKKDRVTDALNATRAAVEEGIVLGGGCALLRCIPALDSLTPANEDQKIGIEIIKRTLKIPAMTIAKNAGVEGSLIVEKIMQSSSEVGYDAMAGDFVNMVEKGIIDPTKVVRTALLDAAGVASLLTTAEVVVTEIPKEEKDPGMGAMGGMGGGMGGGMF [HSPD1]
- thermal stability score (HeLa Kyoto [1]; [5]): 1.84
- thermal stability score (HeLa Kyoto [1]; cell cycle stage: mitosis): -0.583
- solubility in G1/S (log2) (HeLa Kyoto [2]): 0.316
- melting temperature (HeLa Kyoto [3]; cell cycle stage: G1/S): 55.2 °C
- melting temperature (HeLa Kyoto [3]; cell cycle stage: mitosis): 55 °C
- solubility change mitosis (log2) (HeLa Kyoto [4]): 0.129

Sequence: MLRLVPTGARAIVDMSYARHFLDFQGSAIPQAMQKLVVTRLSPNFREAVTLSRDCPVPLPGDGDLLVRNRFVGVNASDINYSAGRYDPSVKPPFDIGFEGIGEVVALGLSASARYTVGQAVAYMAPGSFAEYTVVPASIATPVPSVKPEYLTLLVSGTTAYISLKELGGLSEGKKVLVTAAAGGTGQFAMQLSKKAKCHVIGTCSSDEKSAFLKSLGCDRPINYKTEPVGTVLKQEYPEGVDVVYESVGGAMFDLAVDALATKGRLIVIGFISGYQTPTGLSPVKAGTLPAKLLKKSASVQGFFLNHYLSKYQAAMSHLLEMCVSGDLVCEVDLGDLSPEGRFTGLESIFRAVNYMYMGKNTGKIVVELPHSVNSKL [ZADH2]
- thermal stability score (HeLa Kyoto [1]; [5]): 0.549
- thermal stability score (HeLa Kyoto [1]; cell cycle stage: mitosis): 1.57
- solubility in G1/S (log2) (HeLa Kyoto [2]): 0.198
- melting temperature (HeLa Kyoto [3]; cell cycle stage: G1/S): 52.9 °C
- melting temperature (HeLa Kyoto [3]; cell cycle stage: mitosis): 53.5 °C
- solubility change mitosis (log2) (HeLa Kyoto [4]): -0.199

Sequence: MLRSCAARLRTLGALCLPPVGRRLPGSEPRPELRSFSSEEVILKDCSVPNPSWNKDLRLLFDQFMKKCEDGSWKRLPSYKRTPTEWIQDFKTHFLDPKLMKEEQMSQAQLFTRSFDDGLGFEYVMFYNDIEKRMVCLFQGGPYLEGPPGFIHGGAIATMIDATVGMCAMMAGGIVMTANLNINYKRPIPLCSVVMINSQLDKVEGRKFFVSCNVQSVDEKTLYSEATSLFIKLNPAKSLT [THEM4]
- thermal stability score (HeLa Kyoto [1]; [5]): 0.216
- thermal stability score (HeLa Kyoto [1]; cell cycle stage: mitosis): -1.16
- solubility in G1/S (log2) (HeLa Kyoto [2]): 0.0285
- melting temperature (HeLa Kyoto [3]; cell cycle stage: G1/S): 54.7 °C
- melting temperature (HeLa Kyoto [3]; cell cycle stage: mitosis): 56.2 °C
- solubility change mitosis (log2) (HeLa Kyoto [4]): -0.0775

Sequence: MLRTSVLRLLGRTGASRLSLLEDFGPRYYSSGSLSAGDDACDVRAYFTTPIFYVNAAPHIGHLYSALLADALCRHRRLRGPSTAATRFSTGTDEHGLKIQQAAATAGLAPTELCDRVSEQFQQLFQEAGISCTDFIRTTEARHRVAVQHFWGVLKSRGLLYKGVYEGWYCASDECFLPEAKVTQQPGPSGDSFPVSLESGHPVSWTKEENYIFRLSQFRKPLQRWLRGNPQAITPEPFHHVVLQWLDEELPDLSVSRRSSHLHWGIPVPGDDSQTIYVWLDALVNYLTVIGYPNAEFKSWWPATSHIIGKDILKFHAIYWPAFLLGAGMSPPQRICVHSHWTVCGQKMSKSLGNVVDPRTCLNRYTVDGFRYFLLRQGVPNWDCDYYDEKVVKLLNSELADALGGLLNRCTAKRINPSETYPAFCTTCFPSEPGLVGPSVRAQAEDYALVSAVATLPKQVADHYDNFRIYKALEAVSSCVRQTNGFVQRHAPWKLNWESPVDAPWLGTVLHVALECLRVFGTLLQPVTPSLADKLLSRLGVSASERSLGELYFLPRFYGHPCPFEGRRLGPETGLLFPRLDQSRTWLVKAHRT [MARS2]
- thermal stability score (HeLa Kyoto [1]; [5]): -3.14
- thermal stability score (HeLa Kyoto [1]; cell cycle stage: mitosis): -3.9
- solubility in G1/S (log2) (HeLa Kyoto [2]): 0.0996
- melting temperature (HeLa Kyoto [3]; cell cycle stage: G1/S): 55.2 °C
- melting temperature (HeLa Kyoto [3]; cell cycle stage: mitosis): 55.5 °C
- solubility change mitosis (log2) (HeLa Kyoto [4]): -0.083
